Assay results from patent US20210155676A1 (Gilead, published 2021).
Numbering of substitutions follows the chain as printed.

B1: PGT121.42 hIgG1/hLambda (antibody)
heavy: QMQLQESGPGLVKPSETLSLTCSVSGASISDSYWSWIRRSPGKGLEWIGYVHKSGDTNYNPSLKSRVHLSLDTSKNQVSLSLSSVTAADSGKYYCARTLHGRRIYGIVAFNEWFTYFYMDVWGKGTQVTVSSASTKGPSVFPLAPSSKSTSGGTAALGCLVKDYFPEPVTVSWNSGALTSGVHTFPAVLQSSGLYSLSSVVTVPSSSLGTQTYICNVNHKPSNTKVDKKVEPKSCDKTHTCPPCPAPELLAGPDVFLFPPKPKDTLMISRTPEVTCVVVDVSHEDPEVKFNWYVDGVEVHNAKTKPREEQYNSTYRVVSVLTVLHQDWLNGKEYKCKVSNKALPLPEEKTISKAKGQPREPQVYTLPPSREEMTKNQVSLTCLVKGFYPSDIAVEWESNGQPENNYKTTPPVLDSDGSFFLYSKLTVDKSRWQQGNVFSCSVLHEALHSHYTQKSLSLSPGK
light: not shown
notes: also called PTG121.42
B2: PGT121.64 hIgG1/hLambda (antibody)
heavy: B1 heavy with M2L, S32A, S83T, S84G, T98A, K124T
light: not shown
B3: PGT121.61 hIgG1/hLambda (antibody)
heavy: B1 heavy with S83T, S84G, K124T
light: SDISVAPGETARISCGEKSLGSRAVQWYQHRAGQAPSLIIYNNQDRPSGIPERFSGSPDSRPGTTATLTITSVEAGDEADYYCHIWDSRVPTKWVFGGGTKLTVLGQPKAAPSVTLFPPSSEELQANKATLVCLISDFYPGAVTVAWKADSSPVKAGVETTTPSKQSNNKYAASSYLSLTPEQWKSHRSYSCQVTHEGSTVEKTVAPTECS
B4: PGT121.65 hIgG1/hLambda (antibody)
heavy: B1 heavy with M2L, S32A, S83T, S84G, T98A, K124T
light: B3 light
B5: PGT121.56 hIgG1/hLambda (antibody)
heavy: B1 heavy with N60S, H68N, S83V, S84A, V85A, K124N
light: not shown

Target: T1, Human FcRn (human, UniProt P55899 24-297; P61769 21-119)
T1 construct: also called neonatal Fc receptor
T1 sequence (P55899 24-297 limits assumed, chain 1 of 2): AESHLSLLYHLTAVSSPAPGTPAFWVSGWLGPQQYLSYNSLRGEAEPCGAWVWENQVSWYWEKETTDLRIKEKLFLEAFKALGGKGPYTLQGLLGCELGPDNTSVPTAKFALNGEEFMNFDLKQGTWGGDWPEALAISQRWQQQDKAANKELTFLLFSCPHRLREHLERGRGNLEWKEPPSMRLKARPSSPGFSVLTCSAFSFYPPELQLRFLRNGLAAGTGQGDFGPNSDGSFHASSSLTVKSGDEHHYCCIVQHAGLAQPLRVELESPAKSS
T1 sequence (P61769 21-119 limits assumed, chain 2 of 2): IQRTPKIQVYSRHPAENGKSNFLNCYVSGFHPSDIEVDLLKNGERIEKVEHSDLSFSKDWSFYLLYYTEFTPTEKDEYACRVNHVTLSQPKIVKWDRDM
Experiment: ELISA, ratio of EC50 at pH 7.0 to EC50 at pH 6.0
Experimental: (§1) The binding of antibodies to FcRn of various species at different pHs was determined. A 96-well Maxisorp plate was coated with 100 ul of 5 μg/ml FcRn. The plate was incubated overnight at 4° C., and then blocked with 4% skim milk for 2 hr at room temperature after washing 3 times with 0.05% Tween 20 washing buffer. The plate was incubated with 3 fold serial dilution of primary antibody for 1 hr at room temperature. The plate was then washed 3 times and 100 of Fab-anti-human Fab-HRP or Goat anti-human IgG-HRP secondary antibody diluted in 4% skimmed milk was added. Plates were then incubated 50 min at room temperature, washed three times, and 100 μL fresh TMB substrate was added. Plates were developed for 3 minutes on bench with gentle shaking. Plate was quenched with 100 μL 1M HCl, shaken briefly, read at A450 on a spectramax m5 plate reader.

Binder | Ratio pH 7.0/6.0
B1 | 170
B2 | 79
B3 | 1070
B4 | 182

Target: human FcγRIIIA on primary NK effector cells (human, UniProt P08637 17-254)
Sequence (P08637 17-254): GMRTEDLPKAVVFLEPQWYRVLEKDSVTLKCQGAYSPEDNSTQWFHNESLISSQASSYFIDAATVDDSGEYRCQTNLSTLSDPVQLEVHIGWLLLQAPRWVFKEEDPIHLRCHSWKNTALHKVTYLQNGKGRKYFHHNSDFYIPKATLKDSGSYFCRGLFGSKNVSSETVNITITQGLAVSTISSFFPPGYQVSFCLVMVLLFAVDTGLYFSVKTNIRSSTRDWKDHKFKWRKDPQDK
Experiment: cell-based or functional assay

Binder | ADCC AUC, NK donor A4813, primary CD4+ T cells infected with HT593 | ADCC AUC, NK donor A4813, primary CD4+ T cells infected with US657 | ADCC EC50, NK donor A4813, primary CD4+ T cells infected with HT593 [nM] | ADCC EC50, NK donor A4813, primary CD4+ T cells infected with US657 [nM] | ADCC Emax, NK donor A4813, primary CD4+ T cells infected with HT593 [%] | ADCC Emax, NK donor A4813, primary CD4+ T cells infected with US657 [%]
B1 | 191 | 222 | 4.9 | 1.4 | 71 | 72
B2 | 167 | 188 | 1.4 | 1.6 | 66 | 70
B3 | 169 | 190 | 2.2 | 1.3 | 70 | 72
B4 | 158 | 190 | 2.6 | 3.2 | 71 | 75
B5 | 161 | 219 | 6.3 |  | 72 | 71

Target: T1, Human FcRn
Experiment: ELISA, pH 7.0/6.0 ratio relative to PGT121
Experimental: as §1

Binder | Fold vs PGT121 [fold]
B1 | 5
B2 | 2
B3 | 33
B4 | 6

Target: T1, Human FcRn
Experiment: ELISA, FcRn coated on plate, pH 7.0
Experimental: as §1

Binder | EC50 [nM]
B1 | 69.8
B2 | 125
B3 | 140
B4 | 104
B5 | 102

Target: T1, Human FcRn
Experiment: ELISA, FcRn coated on plate, pH 6.0
Experimental: as §1

Binder | EC50 [nM]
B1 | 0.41
B2 | 1.59
B3 | 0.13
B4 | 0.57
B5 | 0.47
